{
  "source": "paper PMC4220643",
  "about": "(2014)",
  "binders": {"B1": {"name": "PsbO (natural protein)", "chain": "AKQTLTYDDIVGTGLANKCPTLDDTARGAYPIDSSQTYRIARLCLQPTTFLVKEEPKNKRQEAEFVPTKLVTRETTSLDQIQGELKVNSDGSLTFVEEDGIDFQPVTVQMAGGERIPLLFTVKNLVASTQPNVTSITTSTDFKGEFNVPSYRTANFLDPKGRGLASGYDSAIALPQAKEEELARANVKRFSLTKGQISLNVAKVDGRTGEIAGTFESEQLSDDDMGAHEPHEVKIQGVFYASIEPA"}},
  "key": {"[1]": {"target": "Im7-D1a (D1 a-loop fused to Im7) (Thermosynechococcus elongatus, UniProt P0A444 54-113)", "sequence (P0A444 54-113)": "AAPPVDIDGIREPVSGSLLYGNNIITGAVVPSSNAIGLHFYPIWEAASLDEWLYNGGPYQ", "experiment": "SPR"}, "[2]": {"target": "Im7-D2 (C-terminal domain of D2 fused to Im7) (Thermosynechococcus elongatus, UniProt Q8CM25 289-352)", "sequence (Q8CM25 289-352)": "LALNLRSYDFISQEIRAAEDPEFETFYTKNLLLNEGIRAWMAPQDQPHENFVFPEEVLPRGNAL", "experiment": "SPR"}},
  "data": [
    {"binder": "B1", "values": [
      {"measurement": "Kd", "setting": "[1]", "result": "~60", "unit": "µM"},
      {"measurement": "Kd", "setting": "[2]", "result": "~41", "unit": "µM"}
    ]}
  ]
}
